Reference: patent US20240034816A1 (Sanofi, published 2024)
Several values for one entry are separate records, joined by “and”; a condition that tells them apart may be missing. Equal entries are not always repeated.

How the values were obtained:
[1] = target: T1, human NKp46 on NK cells purified from PBMC of healthy donors (human, UniProt O76036 22-304); assay: flow cytometry titration on resting human NK cells from healthy donors, detection with goat anti-human IgG Fcγ-PE, 4-parameter fit; NK cells also carry CD16a
T1 construct: whole, on cells; also called NKp46 on donor NK cells
T1 sequence (O76036 22-304): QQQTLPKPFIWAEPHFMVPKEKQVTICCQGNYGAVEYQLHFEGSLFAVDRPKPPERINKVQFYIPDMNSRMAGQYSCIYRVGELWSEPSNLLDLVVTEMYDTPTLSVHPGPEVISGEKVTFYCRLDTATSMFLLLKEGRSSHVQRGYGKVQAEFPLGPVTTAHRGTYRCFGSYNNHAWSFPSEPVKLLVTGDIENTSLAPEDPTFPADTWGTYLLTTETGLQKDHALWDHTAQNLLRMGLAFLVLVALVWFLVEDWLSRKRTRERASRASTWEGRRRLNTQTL
Protocol: After staining, cells were resuspended in BD Cellfix and analyzed by flow cytometry. Parameters were recorded and analysed with FlowJo software. Staining EC50 values were calculated with GraphPad prism using 4 parameter logistics non-linear regression model.

[2] = target: T2, human CD64 (human FcγRI) (human, UniProt P12314 16-292, limits assumed); assay: SPR, fit 1:1 Binding, mean of 3 experiments
T2 construct: also called HuFcyRI
T2 sequence (P12314 16-292 limits assumed): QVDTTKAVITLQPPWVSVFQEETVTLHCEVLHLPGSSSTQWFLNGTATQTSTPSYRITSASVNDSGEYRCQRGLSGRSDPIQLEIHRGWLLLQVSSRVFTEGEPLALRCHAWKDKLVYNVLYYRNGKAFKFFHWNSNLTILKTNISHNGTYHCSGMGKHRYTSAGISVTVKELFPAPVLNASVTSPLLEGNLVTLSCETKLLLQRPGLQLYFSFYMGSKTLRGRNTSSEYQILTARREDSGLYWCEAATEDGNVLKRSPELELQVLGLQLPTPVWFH

[3] = target: T3, human CD32a (human FcγRIIA) (human, UniProt P12318 34-217, limits assumed); assay: SPR, fit Steady State Affinity, mean of 3 experiments
T3 construct: also called HuFcyRIIa
T3 sequence (looked up): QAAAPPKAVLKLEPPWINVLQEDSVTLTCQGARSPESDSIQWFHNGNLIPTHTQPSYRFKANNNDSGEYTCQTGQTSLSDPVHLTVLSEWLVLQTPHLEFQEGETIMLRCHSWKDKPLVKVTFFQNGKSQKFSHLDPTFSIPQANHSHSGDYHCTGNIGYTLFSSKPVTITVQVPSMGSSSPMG

[4] = target: T4, human CD16a (human FcγRIIIA), V isoform (human, UniProt P08637 17-208); assay: SPR, fit Two State Reaction, Exp No 2
T4 construct: also called HuFcyRIIIaV; CD16a (V176)
T4 sequence (P08637 17-208 F176V limits assumed): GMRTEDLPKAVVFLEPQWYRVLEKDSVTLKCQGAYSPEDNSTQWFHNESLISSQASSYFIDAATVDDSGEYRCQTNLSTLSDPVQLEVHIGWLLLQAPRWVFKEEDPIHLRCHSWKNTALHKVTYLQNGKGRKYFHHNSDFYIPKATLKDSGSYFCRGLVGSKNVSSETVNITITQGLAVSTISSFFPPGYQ

[5] = target: T5, cynomolgus CD16 (cynomolgus, UniProt Q8SPW2 17-208); assay: SPR, fit Two State Reaction, Exp No 2
T5 construct: also called CyFcyRIII
T5 sequence (Q8SPW2 17-208): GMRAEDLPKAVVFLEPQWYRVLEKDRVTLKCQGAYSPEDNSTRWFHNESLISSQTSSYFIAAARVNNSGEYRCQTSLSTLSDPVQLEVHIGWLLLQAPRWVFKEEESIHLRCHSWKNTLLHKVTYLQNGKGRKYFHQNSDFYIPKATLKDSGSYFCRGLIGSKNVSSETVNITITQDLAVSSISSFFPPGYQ

[6] = target: T6, recombinant cynomolgus NKp46 extracellular domain with C-terminal Flag-M2 tag (cynomolgus, UniProt Q95JB9 22-254); assay: SPR (Biacore 8K), NKCE captured by anti-human Fc, antigen as analyte, 1:1 model; mean of 3 experiments
T6 construct: range 22-254; also called cyno NKp46; not shown: C-terminal Flag-M2 tag
T6 sequence (Q95JB9 22-254): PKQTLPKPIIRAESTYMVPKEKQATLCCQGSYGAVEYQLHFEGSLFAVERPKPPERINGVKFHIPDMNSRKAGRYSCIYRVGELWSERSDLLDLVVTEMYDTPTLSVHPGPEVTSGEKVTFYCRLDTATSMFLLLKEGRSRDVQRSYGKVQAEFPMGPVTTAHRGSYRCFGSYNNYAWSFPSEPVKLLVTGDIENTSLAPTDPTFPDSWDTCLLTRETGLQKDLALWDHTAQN
Protocol: Measurements were performed in multicycle kinetics experiments for each antibody using a Biacore 8K instrument. In each multicycle experiment the antibodies were captured via an anti-hum a Fc antibody immobilized on a series S CM5 sensor chip (human antibody capture kit, Cytiva, Uppsala, Catalog No. BR1008-39).
The antigens, diluted as described above (concentration range 0.1 nM to 50 nM), were injected at a flow rate of 60 μL/min for 240 sec followed by a dissociation phase of 400 sec. All analyte concentrations were run in duplicate together with multiple buffer blanks for double referencing. Regeneration of the capture surface was performed with regeneration solution (3 mol/L MgCl2) for 60 sec at 30 μL/min. Binding kinetics data were evaluated with the Biacore 8K Evaluation Software version 1.1.1.7442 using a 1:1 binding model with mass transport limitation.

[7] = target: T2, human CD64 (human FcγRI); assay: SPR, fit 1:1 Binding, Exp No 1
[8] = target: T4, human CD16a (human FcγRIIIA), V isoform; assay: SPR, fit Two State Reaction, Exp No 1
[9] = target: T5, cynomolgus CD16; assay: SPR, fit Two State Reaction, Exp No 1
[10] = target: T4, human CD16a (human FcγRIIIA), V isoform; assay: SPR, fit Two State Reaction, mean of 3 experiments
[11] = target: T5, cynomolgus CD16; assay: SPR, fit Two State Reaction, mean of 3 experiments
[12] = target: T7, human CD32b (human FcγRIIB) (human, UniProt P31994 43-217, limits assumed); assay: SPR, fit Steady State Affinity, Exp No 1
T7 construct: also called HuFcyRIIb
T7 sequence (looked up): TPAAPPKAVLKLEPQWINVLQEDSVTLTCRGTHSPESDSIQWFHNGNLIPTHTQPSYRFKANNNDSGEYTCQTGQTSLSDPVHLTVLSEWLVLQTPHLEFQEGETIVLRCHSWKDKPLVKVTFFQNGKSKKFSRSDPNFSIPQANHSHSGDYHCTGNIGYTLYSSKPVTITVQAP

[13] = target: T8, cynomolgus CD32a (cynomolgus); assay: SPR, fit Steady State Affinity, Exp No 1
T8 construct: also called CyFcyRIIa

[14] = target: T9, cynomolgus CD32b (cynomolgus); assay: SPR, fit Steady State Affinity, Exp No 1
T9 construct: also called CyFcyRIIb

[15] = target: T10, human CD16b (human FcgRIIIB) (human, UniProt O75015 17-200, limits assumed); assay: SPR, fit Steady State Affinity, Exp No 1
T10 construct: also called HuFcyRIIIb
T10 sequence (O75015 17-200 limits assumed): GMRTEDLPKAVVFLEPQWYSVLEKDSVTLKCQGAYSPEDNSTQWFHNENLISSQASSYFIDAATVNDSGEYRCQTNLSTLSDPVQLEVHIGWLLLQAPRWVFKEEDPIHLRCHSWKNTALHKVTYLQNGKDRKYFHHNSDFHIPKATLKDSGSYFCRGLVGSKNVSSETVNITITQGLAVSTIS

[16] = target: T3, human CD32a (human FcγRIIA); assay: SPR, fit Steady State Affinity, Exp No 1
[17] = target: T2, human CD64 (human FcγRI); assay: SPR, fit 1:1 Binding, Exp No 3
[18] = target: T7, human CD32b (human FcγRIIB); assay: SPR, fit Steady State Affinity, Exp No 3
[19] = target: T8, cynomolgus CD32a; assay: SPR, fit Steady State Affinity, Exp No 3
[20] = target: T9, cynomolgus CD32b; assay: SPR, fit Steady State Affinity, Exp No 3
[21] = target: T10, human CD16b (human FcgRIIIB); assay: SPR, fit Steady State Affinity, Exp No 3
[22] = target: T3, human CD32a (human FcγRIIA); assay: SPR, fit Steady State Affinity, Exp No 3

B1: NKp46-BCMA_Fc-ADE-DSB NKCE (bispecific antibody, human IgG1, kappa)
light: QTVVTQEPSLTVSPGGTVTLTCASSTGTVTPSNYANWVQQKPGQAFRGLIGDNNSRPPGTPARFSASLLGGKAALTLSGVQPEDEAEYYCALWFGNQWVFGGGTKLTVLGGGGSGGGGSDIQMTQSPSSLSASVGDRVTITCRASQDISNYLNWYQQKPGKAPKLLIYYTSRLHSGVPSRFSGSGSGTDFTFTISSLQPEDIATYFCQQGNTRPWTFGGGTKVEIKGGGGSGGGGSRTVAAPSVFIFPPSDEQLKSGTASVVCLLNNFYPREAKVQWKVDNALQSGNSQESVTEQDSKDSTYSLSSTLTLSKADYEKHKVYACEVTHQGLSSPVTKSFNRGEC
heavy: QVQLVQSGAEVKKPGSSVKVSCKASGYTFSDYVINWVRQAPGQGLEWMGEIYPGSGTNYYNEKFKAKATITADKSTSTAYMELSSLRSEDTAVYYCARRGRYGLYAMDYWGQGTTVTVSSQVQLVESGGGVVQPGRSLRLSCAASGFTFSNFGMHWVRQAPGRGLEWVAVIWSDETNRYYADSVKGRFTVSRDNVKSTVYLQMNSLISEDTAVYYCARDQQYCSSDSCFTWFDPWGQGTLVTVSSASTKGPSVFPLAPSSKSTSGGTAALGCLVKDYFPEPVTVSWNSGALTSGVHTFPAVLQSSGLYSLSSVVTVPSSSLGTQTYICNVNHKPSNTKVDKKVEPKSCDKTHTCPPCPAPELLAGPDVFLFPPKPKDTLMISRTPEVTCVVVDVSHEDPEVKFNWYVDGVEVHNAKTKPCEEQYNSTYRCVSVLTVLHQDWLNGKEYKCKVSNKALPAPEEKTISKAKGQPREPQVYTLPPCRDELTKNQVSLWCLVKGFYPSDIAVEWESNGQPENNYKTTPPVLDSDGSFFLYSKLTVDKSRWQQGNVFSCSVMHEALHNHYTQKSLSLSPG
chain: DKTHTCPPCPAPELLAGPDVFLFPPKPKDTLMISRTPEVTCVVVDVSHEDPEVKFNWYVDGVEVHNAKTKPCEEQYNSTYRCVSVLTVLHQDWLNGKEYKCKVSNKALPAPEEKTISKAKGQPREPQVCTLPPSRDELTKNQVSLSCAVKGFYPSDIAVEWESNGQPENNYKTTPPVLDSDGSFFLVSKLTVDKSRWQQGNVFSCSVMHEALHNRFTQKSLSLSPG
With B1 the EC50 [1] was 0.585 µg/mL and 0.863 µg/mL and 0.481 µg/mL, the Kd [2] was 0.32 nM and the Kd [3] was 678 nM. It also gave a Kd [4] of 12.1 nM, a Kd [5] of 9.3 nM and a Kd [6] of 16.9 nM. For the same binder, the Kd [7] was 0.32 nM, the Kd [8] was 11.7 nM and the Kd [9] was 10 nM. For the same binder, the Kd [10] was 13.4 nM, the Kd [11] was 11.7 nM and the Kd [12] was 1350 nM. For the same binder, the Kd [13] was 1350 nM, the Kd [14] was 884 nM and the Kd [15] was 1260 nM. The Kd [16] was 415 nM, the Kd [17] was 0.38 nM and the Kd [18] was 1420 nM. It also gave a Kd [19] of 1700 nM, a Kd [20] of 1300 nM and a Kd [21] of 2330 nM. It also gave a Kd [22] of 963 nM.
